Assay results reported in PMC11432007.

Target: GABAA receptor β2 subunit extracellular domain fragment Gln25–Gly243 (human (abstract, Figure 1); 'bovine gene' in the methods) (UniProt P47870)
Assay: negative staining electron microscopy; single refolded subunit fragment, dialysed into 10 mM glycine pH 10.3; 2% uranyl acetate on carbon-coated copper grid, 120 kV TEM; 2D classification in Relion from manually picked particles of 20 micrographs

Substance: GABAA receptor β2 subunit extracellular domain fragment Gln25–Gly243 (from UniProt P47870 25-243) (domain or fragment)
- stoichiometry N: 5
